{"source": "patent US20160032292", "about": "“Aptamer-Guided Gene Targeting” (Georgia Tech Research Corporation, published 2016)", "binders": {"B1": {"name": "A7.Red.30 (ssDNA)", "DNA": "GCGGGCGCTGTTGACAGCGGTCAGGTGGATGGGATGCAGGACTCCTCCCTGCAGGACGGCTGCTTC"}, "B2": {"name": "P1-A7-P2.TRP5.40 (ssDNA)", "DNA": "CTTCTGCCCGCCTCCTTCCGCGGGCGCTGTTGACAGCGGTCAGGTGGATGGGATGGACGAGATAGGCGGACACTGGTTTTGATGAAGCTGTCGCGGATCCCACATTCTGGGAAG"}, "B3": {"name": "A7.Red.40 (ssDNA)", "DNA": "GCGGGCGCTGTTGACAGCGGTCAGGTGGATGGGATGTGACCCAGGACTCCTCCCTGCAGGACGGCTGCTTCATCTA"}}, "key": {"[1]": {"target": "T1, I-SceI homing endonuclease (expressed in HEK-293 from pSce) (UniProt P03882 P03882:1-235)", "T1 sequence": "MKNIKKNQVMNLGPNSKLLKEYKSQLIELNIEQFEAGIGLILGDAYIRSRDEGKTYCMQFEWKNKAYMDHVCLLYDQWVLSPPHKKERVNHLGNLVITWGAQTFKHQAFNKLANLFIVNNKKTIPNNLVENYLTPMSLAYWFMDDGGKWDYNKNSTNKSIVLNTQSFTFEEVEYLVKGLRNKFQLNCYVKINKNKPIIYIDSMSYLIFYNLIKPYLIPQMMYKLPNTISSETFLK", "assay": "cell_activity; RFP+ over C.Red.30, hand counts (4-fold by flow cytometry)", "procedure": "(§1) Protocols, 1:1412-1428 (2006)) 24 h before transfection. For transfections in HEK-293 cells, the plasmid DNA was used in the amount of 0.5 μg for the expression vector, as well as 0.5 μg for the targeted vector, and the repairing DNA oligonucleotide used was 1 μg, unless otherwise indicated. For the transfections with I-SceI digested pLDSLm, 0.5 m g of the linearized pLDSLm vector was used with 1 m g of repairing DNA oligonucleotide. Digestion of the pLDSLm vector was done using I-SceI (New England Biolabs, Ipswich, Mass., USA). Ten micrograms of plasmid pLDSLm was digested using 15 U I-SceI, 250 ng bovine serum albumin (BSA), 10×I-SceI buffer (New England Biolabs, Ipswich, Mass., USA) and water to a final volume of 50 μl. Digestions were done overnight at 37° C. In all transfection experiments, the oligonucleotides and the plasmid were diluted in DMEM without supplements, and then PEI was added, the solution was vortexed and added to the wells 10-15 min later. Red fluorescent cells were visualized by fluorescent microscopy using a Zeiss Observer A1 microscope and an AxioCam MRm camera (Zeiss, Thornwood, N.Y., USA). […] For certain transfections, wells of 24-well plates were seeded with 150,000 cells (on the day before transfection) and 5-8 days after transfection individual fluorescent cells per well were counted using a fluorescence microscope just before flow cytometry analysis. […]"}, "[2]": {"target": "T2, I-SceI homing endonuclease (expressed in yeast from GAL1-10 promoter) (UniProt P03882 P03882:1-235)", "T2 sequence": "T1 sequence", "assay": "cell_activity; gene correction over P1-r-P2.TRP5.40; I-SceI induced before transformation", "procedure": "Briefly, 50 ml of yeast extract-peptone-lactic acid (YPLac) (lactic acid 2%), pH 5.8, or yeast extract-peptone-dextrose (YPD) liquid culture was inoculated about 24 h before transformation and incubated with vigorous shaking at 30° C. YPLac was used as a neutral carbon source so as not to induce I-SceI expression until plating the transformations to selective galactose-containing media. YPD was used to repress I-SceI expression until plating the transformations to selective glucose-containing media. Transformations were done with 1 nmol of total oligonucleotide DNA, with the exception of the PAGE-purified oligonucleotides in which transformations were done with 500 pmol of total oligonucleotide DNA. For the transformations testing to determine whether the aptamer was working in trans, two oligonucleotides were used, 500 pmol of each oligonucleotide, such that the combined total oligonucleotide DNA used was 1 nmol. Sequences of oligonucleotides used for repair can be found in Table 1. Cells from each transformation were diluted appropriately and plated to synthetic complete medium lacking the respective amino acid and containing 2% galactose for I-SceI induction, 2 or 0.2% galactose for HO induction or 2% glucose for I-SceI or HO repression. […] Viability after transformation was calculated by plating to glucose-containing synthetic complete medium. […]"}, "[3]": {"target": "T1, I-SceI homing endonuclease (expressed …)", "assay": "cell_activity; RFP+ over C.Red.40, flow cytometry", "procedure": "as §1"}}, "data": [{"binder": "B1", "values": [{"measurement": "activity", "setting": "[1]", "result": 16, "unit": "fold"}]}, {"binder": "B2", "values": [{"measurement": "activity", "setting": "[2]", "result": 1.25, "unit": "fold"}]}, {"binder": "B3", "values": [{"measurement": "activity", "setting": "[3]", "result": 6, "unit": "fold"}]}]}
